Test [1] has as its target chemokine receptors on the surface of Jurkat cells. Put plainly: biotinylated peptide on cells, streptavidin-peroxidase.
The target in test [2] is chemokine receptors on THP-1 cells. Put plainly: biotinylated peptide at 100 µM on 4×10^5 THP-1 cells, streptavidin-peroxidase, TMB.
Test [3] has as its target chemokine receptors on the surface of Jurkat cells. Put plainly: biotinylated peptide at 100 µM on 10^6 Jurkat cells, streptavidin-peroxidase, TMB.
Test [4] deals with CXCR4 (human) (UniProt P61073). The test is described as follows: cell-based or functional assay.
Test [5] concerns the target chemokine receptors on THP-1 cells. The test is described as follows: biotinylated peptide on THP-1 cells, streptavidin-peroxidase, Scatchard; with and without 100 µM unlabeled peptide 3 (printed as affinity constant).

Sequence of CXCR4 (human) (P61073 whole entry): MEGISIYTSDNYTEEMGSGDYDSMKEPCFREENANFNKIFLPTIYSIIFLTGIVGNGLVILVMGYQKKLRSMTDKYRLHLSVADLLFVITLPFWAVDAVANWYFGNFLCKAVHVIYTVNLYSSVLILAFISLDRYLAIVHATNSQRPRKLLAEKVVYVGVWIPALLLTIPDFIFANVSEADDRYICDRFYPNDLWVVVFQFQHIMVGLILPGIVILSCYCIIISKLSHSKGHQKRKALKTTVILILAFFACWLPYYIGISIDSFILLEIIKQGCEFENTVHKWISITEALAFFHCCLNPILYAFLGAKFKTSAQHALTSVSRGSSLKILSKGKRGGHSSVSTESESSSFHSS

In test [1], gp120:V3(IIIb) (peptide) gave a fold specific binding against THP-1 cells of 5 fold. In test [2], the ΔA450 nm, alone is 0.268 ΔA450 nm and the ΔA450 nm, specific binding was 0.137 ΔA450 nm. For the same substance, in test [3], the ΔA450 nm, alone is 0.878 ΔA450 nm and the ΔA450 nm, specific binding is 0.689 ΔA450 nm.
Take KLK (peptide): the percentage inhibition of SDF1α induced THP-1 migration at 100 µM in test [4] came to 87%.
For gp120:V3(BaL) (peptide), in test [2], the ΔA450 nm, alone was 0.642 ΔA450 nm and the ΔA450 nm, specific binding is 0.535 ΔA450 nm. Also, in test [3], the ΔA450 nm, alone was 0.167 ΔA450 nm and the ΔA450 nm, specific binding is < 0 ΔA450 nm.
In general, Kd refers to the free concentration of one partner at which half of the binding sites on the other are occupied at equilibrium, for simple one-to-one binding. The low end stands for tighter binding, the high end for weaker binding. Substance “N-terminal biotin-labeled peptide 2(1-15)[MCP-1]” had an equilibrium dissociation constant (Kd) in test [5] of 250 nM.

The values above are taken from patent US7238711.
